Reference: patent US20070036793A1, “Methods for use of an lkb1/strad7mo25 complex” (priority 2003, published 2007)
Values belong to the molecule of their own block, whether it stands above or below them.

What was measured:
AMPK = target: T1, AMPK (Homo sapiens, UniProt Q13131); experiment: Activation and Thr-172 phosphorylation of endogenous AMPK in HeLa cells with or without stably expressed LKB1; format: cell-based; settings: earlier unpublished results
T1 construct: Endogenous AMPK was immunoprecipitated from the cell extracts and assayed; endogenous in cells; host or cells: HeLa cells (control, or stably expressing wild type or kinase-dead LKB1)
T1 sequence (Q13131 whole entry): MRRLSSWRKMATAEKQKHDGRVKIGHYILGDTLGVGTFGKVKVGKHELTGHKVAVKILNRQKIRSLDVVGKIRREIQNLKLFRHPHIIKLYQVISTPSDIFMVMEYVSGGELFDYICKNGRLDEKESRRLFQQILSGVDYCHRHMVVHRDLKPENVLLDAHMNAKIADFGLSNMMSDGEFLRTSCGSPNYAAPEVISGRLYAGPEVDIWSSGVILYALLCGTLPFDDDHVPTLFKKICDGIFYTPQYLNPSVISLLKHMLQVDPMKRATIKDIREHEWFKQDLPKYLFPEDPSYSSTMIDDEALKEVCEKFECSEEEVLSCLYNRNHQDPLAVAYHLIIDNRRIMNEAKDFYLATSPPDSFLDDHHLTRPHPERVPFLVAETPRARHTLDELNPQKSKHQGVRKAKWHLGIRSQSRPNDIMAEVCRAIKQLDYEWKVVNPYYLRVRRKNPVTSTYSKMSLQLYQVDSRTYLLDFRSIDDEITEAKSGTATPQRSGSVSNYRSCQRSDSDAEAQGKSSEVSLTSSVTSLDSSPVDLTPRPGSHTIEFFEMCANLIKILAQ
T1 sequence (Q9Y478 2-270 partner limits assumed): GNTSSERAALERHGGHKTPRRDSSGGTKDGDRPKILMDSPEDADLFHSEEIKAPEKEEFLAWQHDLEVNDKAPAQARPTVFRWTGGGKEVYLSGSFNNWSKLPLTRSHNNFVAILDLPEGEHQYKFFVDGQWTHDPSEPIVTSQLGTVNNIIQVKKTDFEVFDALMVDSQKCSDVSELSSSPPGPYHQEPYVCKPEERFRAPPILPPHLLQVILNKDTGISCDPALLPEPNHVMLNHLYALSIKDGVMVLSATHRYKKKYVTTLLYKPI
T1 sequence (P54619 whole entry partner): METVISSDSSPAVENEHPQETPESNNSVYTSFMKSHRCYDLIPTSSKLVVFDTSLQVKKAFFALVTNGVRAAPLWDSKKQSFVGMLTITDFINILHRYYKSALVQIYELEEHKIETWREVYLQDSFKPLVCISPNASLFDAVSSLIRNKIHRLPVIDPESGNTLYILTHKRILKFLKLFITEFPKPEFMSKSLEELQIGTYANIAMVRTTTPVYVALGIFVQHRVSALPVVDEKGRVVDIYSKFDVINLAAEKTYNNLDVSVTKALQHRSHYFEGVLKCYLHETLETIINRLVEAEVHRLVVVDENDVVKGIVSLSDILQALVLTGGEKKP

[1] = target: T2, GST-LKB1-STRADα-MO25α complex (Mus musculus, UniProt Q9WTK7); experiment: LKB1 kinase assay with AMPK T-loop peptide substrate (Example 3); format: biochemical; settings: peptide 10-2000 μM, 0.1 mM ATP, 30 min at 30° C.
T2 construct: Constructs expressing the full length wild type and kinase dead mouse LKB1 have been described previously; made in house; host or cells: HEK-293 / HEK-293T cells, co-transfected
T2 sequence (Q9WTK7 1-433 limits assumed): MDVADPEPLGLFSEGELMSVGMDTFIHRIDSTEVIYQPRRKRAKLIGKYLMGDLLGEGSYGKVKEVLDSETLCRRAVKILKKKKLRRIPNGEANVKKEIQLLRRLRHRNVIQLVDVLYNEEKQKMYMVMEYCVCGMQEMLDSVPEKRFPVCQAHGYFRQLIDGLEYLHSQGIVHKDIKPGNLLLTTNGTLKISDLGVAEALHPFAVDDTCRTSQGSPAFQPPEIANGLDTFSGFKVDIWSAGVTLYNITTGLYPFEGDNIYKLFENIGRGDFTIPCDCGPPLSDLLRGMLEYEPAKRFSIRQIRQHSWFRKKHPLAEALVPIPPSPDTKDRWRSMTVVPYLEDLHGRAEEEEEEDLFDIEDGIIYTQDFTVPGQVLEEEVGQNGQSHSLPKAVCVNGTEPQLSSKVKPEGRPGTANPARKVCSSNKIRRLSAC
T2 sequence (Q7RTN6 1-431 partner): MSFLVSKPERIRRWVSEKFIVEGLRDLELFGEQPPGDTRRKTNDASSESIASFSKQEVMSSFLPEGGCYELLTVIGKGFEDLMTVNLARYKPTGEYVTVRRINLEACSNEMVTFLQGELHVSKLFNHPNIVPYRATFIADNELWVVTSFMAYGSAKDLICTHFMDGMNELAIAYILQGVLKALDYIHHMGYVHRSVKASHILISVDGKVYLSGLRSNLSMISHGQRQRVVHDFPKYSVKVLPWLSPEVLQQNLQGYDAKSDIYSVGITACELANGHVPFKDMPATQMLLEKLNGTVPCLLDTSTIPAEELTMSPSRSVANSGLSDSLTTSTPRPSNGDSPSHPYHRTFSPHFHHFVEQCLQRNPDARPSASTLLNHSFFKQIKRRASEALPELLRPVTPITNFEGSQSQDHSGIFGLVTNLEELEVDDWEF
T2 sequence (Q9Y376 1-341 partner): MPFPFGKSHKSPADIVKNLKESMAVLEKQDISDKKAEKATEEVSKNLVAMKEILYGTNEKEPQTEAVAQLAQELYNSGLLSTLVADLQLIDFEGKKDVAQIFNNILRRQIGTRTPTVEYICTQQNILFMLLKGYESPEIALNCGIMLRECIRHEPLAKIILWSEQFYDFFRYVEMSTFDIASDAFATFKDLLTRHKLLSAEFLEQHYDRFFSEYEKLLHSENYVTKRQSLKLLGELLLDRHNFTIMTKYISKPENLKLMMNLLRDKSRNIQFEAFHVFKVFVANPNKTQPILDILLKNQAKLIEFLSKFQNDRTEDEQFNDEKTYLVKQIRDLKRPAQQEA
Description: FIG. 20: Km and Vmax for a peptide substrate (termed AMPKtide). Assay conditions are described in Example 3.
An assay may be performed as follows. Other assays using such a substrate peptide may be used, for example in a high throughput format. The standard assay (50 μl) contained: 0.3 μg of purified GST-LKB1-STRADα-MO25α complex, 50 mM Tris/HCl pH 7.5, 0.1 mM EGTA, 0.1% (by vol) 2-mercaptoethanol, 10 mM magnesium acetate, 0.1 mM [γ^32P]ATP (˜200 cpm/pmol) and T-loop peptide ([…], 10-2000 μM). The assays were carried out for 30 min at 30° C., then terminated by pipetting the reaction mixture onto a 1 cm square of p81 paper, which was washed with 6 changes of 250 ml of 50 mM phosphoric acid (2 min each wash), the paper washed once in 200 ml of acetone and dried. Radioactivity bound to the p81 paper was quantitated by Cherenkov counting. 1 unit of activity is the amount of enzyme that catalyses the phosphorylation of 1 nmol of peptide per minute.

[2] = target: T3, T-loop peptide of AMPK (Example 3)
T3 chain: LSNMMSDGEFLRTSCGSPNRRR

[3] = target: T4, Flag-tagged STRADβ, Q9C0K7
T4 chain: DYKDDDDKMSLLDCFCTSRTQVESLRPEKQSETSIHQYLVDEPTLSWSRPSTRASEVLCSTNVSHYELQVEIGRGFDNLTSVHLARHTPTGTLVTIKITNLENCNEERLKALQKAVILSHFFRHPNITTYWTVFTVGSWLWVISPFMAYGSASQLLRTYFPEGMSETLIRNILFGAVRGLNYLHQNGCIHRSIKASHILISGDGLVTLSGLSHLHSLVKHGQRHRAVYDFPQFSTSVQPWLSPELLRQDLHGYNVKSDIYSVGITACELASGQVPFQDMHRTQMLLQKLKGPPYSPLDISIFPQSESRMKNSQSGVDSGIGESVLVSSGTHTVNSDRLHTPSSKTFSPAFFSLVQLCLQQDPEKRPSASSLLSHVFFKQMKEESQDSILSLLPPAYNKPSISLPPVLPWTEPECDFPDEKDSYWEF

[4] = target: T5, Flag-tagged STRADα, Q7RTN6
T5 chain: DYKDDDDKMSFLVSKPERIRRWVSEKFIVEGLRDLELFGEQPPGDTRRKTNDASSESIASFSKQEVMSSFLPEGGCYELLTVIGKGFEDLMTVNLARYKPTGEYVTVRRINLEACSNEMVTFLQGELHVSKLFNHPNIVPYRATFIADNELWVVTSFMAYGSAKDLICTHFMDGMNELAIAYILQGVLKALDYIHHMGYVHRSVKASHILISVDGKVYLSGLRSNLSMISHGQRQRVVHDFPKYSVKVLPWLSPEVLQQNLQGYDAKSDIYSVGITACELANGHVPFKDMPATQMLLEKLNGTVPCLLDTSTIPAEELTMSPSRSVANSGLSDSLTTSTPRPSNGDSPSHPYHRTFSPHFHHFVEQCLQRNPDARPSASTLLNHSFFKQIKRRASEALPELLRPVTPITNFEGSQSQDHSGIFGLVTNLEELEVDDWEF

Flag-tagged STRADα = target: T6, Flag-tagged STRADα (human, UniProt Q7RTN6 1-431, limits assumed); experiment: heterotrimeric complex purified through GST-LKB1 from co-transfected 293 cells, colloidal blue gel and blots
T6 construct: pCMV5 vector; also called Flag-STRADα; FLAG-STRADα
T6 sequence: T5 chain
Description: (§1) FIG. 4. MO25α is associated with LKB1 through STRAD (A) 293 cells were transfected with plasmids encoding for the expression of the indicated GST fusion proteins together with Myc-MO25α. 36 h post transfection, the GST tagged proteins were affinity purified from the cell lysates using glutathione-Sepharose as described in Materials and Methods. […] 5 μg of total cell lysates prior to affinity purification were also subjected to immunoblotting with anti-Myc antibody to ensure that Myc-MO25α was expressed at similar levels in each co-transfection (lower panel). (B) N-terminal GST tagged LKB1 was expressed in 293 cells in the presence or absence of Flag-STRADα and purified as above. The purified proteins were subjected to SDS-polyacrylamide gel electrophoresis and visualised by Colloidal blue staining (upper panel). The faint protein band indicated, corresponding to an endogenous protein of 40-kDa (marked *), was identified by tryptic peptide mass-spectral fingerprint as endogenously expressed MO25α (with 38% sequence coverage). The purified proteins were also immunoblotted with the indicated antibodies (lower panels). (C) As above except that GST-LKB1 was expressed in 293 cells together with the indicated isoforms of Flag-STRAD and Myc-MO25 and the proteins visualised by colloidal blue staining were also immunoblotted with the indicated antibodies. For all panels, similar results were obtained in at least 3 separate experiments.
(§2) Expression of GST-fusion proteins in 293 cells and affinity purification. 10-cm diameter dishes of 293 cells were transiently transfected with 3 to 10 μg of the pEBG-2T constructs using a modified calcium phosphate method (Alessi et al., 1996). 36 h post-transfection, the cells were lysed and the clarified lysates were incubated for 1 h on a rotating platform with glutathione-Sepharose (25 μl/dish of lysate) previously equilibrated in lysis Buffer.

Flag-tagged STRADβ = target: T7, Flag-tagged STRADβ (human, UniProt Q9C0K7 1-418); experiment: as above
T7 construct: pCMV5 vector; also called Flag-STRADβ; FLAG-STRADβ
T7 sequence: T4 chain
Description: as §1, §2

B1: recombinant GST-LKB1:STRADα:MO25α complex (protein)
chain 1: MDVADPEPLGLFSEGELMSVGMDTFIHRIDSTEVIYQPRRKRAKLIGKYLMGDLLGEGSYGKVKEVLDSETLCRRAVKILKKKKLRRIPNGEANVKKEIQLLRRLRHRNVIQLVDVLYNEEKQKMYMVMEYCVCGMQEMLDSVPEKRFPVCQAHGYFRQLIDGLEYLHSQGIVHKDIKPGNLLLTTNGTLKISDLGVAEALHPFAVDDTCRTSQGSPAFQPPEIANGLDTFSGFKVDIWSAGVTLYNITTGLYPFEGDNIYKLFENIGRGDFTIPCDCGPPLSDLLRGMLEYEPAKRFSIRQIRQHSWFRKKHPLAEALVPIPPSPDTKDRWRSMTVVPYLEDLHGRAEEEEEEDLFDIEDGIIYTQDFTVPGQVLEEEVGQNGQSHSLPKAVCVNGTEPQLSSKVKPEGRPGTANPARKVCSSNKIRRLSACKQQ
chain 2: T5 chain
chain 3: T2 sequence (Q9Y376 1-341 partner)
Km (phosphorylation of the T-loop peptide) [2]: The Km for the peptide was estimated to be 1.80±0.48
Vmax of phosphorylation of AMPKtide by the GST-LKB1-STRADα-MO25α complex [2]: Vmax: 23.43 ± 3.51 U/mg

B2: N-terminal GST tagged wild type LKB1 (protein)
chain: B1 chain 1
LKB1 activity (autophosphorylation and phosphorylation of MBP) [3]: LKB1 was only activated by STRADβ in the presence of MO25 isoforms
LKB1 activity (autophosphorylation and phosphorylation of MBP) [4]: co-expression with STRADα induced an 4-fold increase in LKB1 activity
Relative activation (MBP): 32P phosphorylation of MBP by affinity purified GST-LKB1-WT co-expressed with STRADα (lane 2), GST-LKB1 alone (lane 1) = 1 [4]: 3.9

Continued, values first:

activation of AMPK (AMPK): not activated
Molecule: CN(C)C(=N)N=C(N)N [metformin]

Km [1]: 1800 ± 480 µM
Vmax [1]: 23.4±3.5
Molecule: LSNMMSDGEFLRTSCGSPNRRR [AMPKtide, human AMPKα1 residues 163-181 with 3 additional Arg residues added to the C-terminal]

binding result (Flag-tagged STRADα): binds
binding result (Flag-tagged STRADβ): binds
B3: N-terminal Myc-tagged MO25β (other)
chain: MEQKLISEEDLPLFSKSHKNPAEIVKILKDNLAILEKQDKKTDKASEEVSKSLQAMKEILCGTNEKEPPTEAVAQLAQELYSSGLLVTLIADLQLIDFEGKKDVTQIFNNILRRQIGTRSPTVEYISAHPHILFMLLKGYEAPQIALRCGIMLRECIRHEPLAKIILFSNQFRDFFKYVELSTFDIASDAFATFKDLLTRHKVLVADFLEQNYDTIFEDYEKLLQSENYVTKRQSLKLLGELILDRHNFAIMTKYISKPENLKLMMNLLRDKSPNIQFEAFHVFKVFVASPHKTQPIVEILLKNQPKLIEFLSSFQKERTDDEQFADEKNYLIKQIRDLKKTAP
notes: also called Myc-MO25β; myc-MO25β
